From patent publication US20060025337

Molecular target: T1, p53-382 acetylated peptide substrate ('Fluor de Lys-SIRT1', BIOMOL) (not fully specified)
T1 chain: RHKK

B1: recombinant human SIRT1 (His6-tagged) (protein)
chain: MADEAALALQPGGSPSAAGADREAASSPAGEPLRKRPRRDGPGLERSPGEPGGAAPEREVPAAARGCPGAAAAALWREAEAEAAAAGGEQEAQATAAAGEGDNGPGLQGPSREPPLADNLYDEDDDDEGEEEEEAAAAAIGYRDNLLFGDEIITNGFHSCESDEEDRASHASSSDWTPRPRIGPYTFVQQHLMIGTDPRTILKDLLPETIPPPELDDMTLWQIVINILSEPPKRKKRKDINTIEDAVKLLQECKKIIVLTGAGVSVSCGIPDFRSRDGIYARLAVDFPDLPDPQAMFDIEYFRKDPRPFFKFAKEIYPGQFQPSLCHKFIALSDKEGKLLRNYTQNIDTLEQVAGIQRIIQCHGSFATASCLICKYKVDCEAVRGDIFNQVVPRCPRCPADEPLAIMKPEIVFFGENLPEQFHRAMKYDKDEVDLLIVIGSSLKVRPVALIPSSIPHEVPQILINREPLPHLHFDVELLGDCDVIINELCHRLGGEYAKLCCNPVKLSEITEKPPRTQKELAYLSELPPTPLHVSEDSSSPERTSPPDSSVIVTLLDQAAKSNDDLDVSESKGCMEEKPQEVQTSRNVESIAEQMENPDLKNVGSSTGEKNERTSVAGTVRKCWPNRVAKEQISRRLDGNQYLFLPPNRYIFHGAEVYSDSEDDVLSSSSCGSNSDSGTCQSPSLEEPMEDESEIEEFYNGLEDEPDVPERAGGAGFGTDGDDQEAINEAISVKQEVTDMNYPSNKS
Question: With B1 as the protein, how does the “Km for p53-382 acetylated peptide (SIRT1 initial rate at 3 mM NAD+, control, no resveratrol)” value read?
Answer: Km(control, ν)=64 µM

Question: What about the “Km for p53-382 acetylated peptide (SIRT1 initial rate at 3 mM NAD+, with 100 µM resveratrol)” value of the same protein?
Answer: Km (+resveratrol, Δ)=1.8 µM

Question: What about the “fold decrease of the acetylated peptide Km caused by 100 µM resveratrol” value of the same protein?
Answer: Its effect on the acetylated peptide Km was particularly striking, amounting to a 35-fold decrease
